Measurements taken from publication PMC11883276.
Each block holds one substance with its values, some of them ahead of it.

How the values were obtained:
[1] = target: full-length human E-cadherin fused to GFP at the C-terminus, on A431-D cells (A431-D^E-cad) (human) (UniProt P12830)
[2] = target: endogenous human E-cadherin on MCF-7 cells (human) (UniProt P12830)
[3] = target: full-length wild-type human N-cadherin on A431-D cells (A431-D^N-cad; A431-D^N-cad+FGFR) (human) (UniProt P19022)
[4] = target: full-length wild-type human N-cadherin on A431-D cells (A431-D^N-cad; A431-D^N-cad+FGFR) (human) (UniProt P19022); remark: listed apart in the source
[5] = target: Fc-tagged extracellular domain of N-cadherin (N-cad-Fc) (UniProt P19022)
[6] = target: Fc-tagged extracellular domain of E-cadherin (E-cad-Fc) (UniProt P12830)
[7] = target: Fc-tagged extracellular domain of N-cadherin (N-cad-Fc) (UniProt P19022); test: density of cells attached to cadherin-coated substrates; A431-D^E-cad or A431-D^N-cad+FGFR cells counted 90 min after seeding in 0.5% serum with the fibronectin-blocking antibody 16G3 on E-cad-Fc or N-cad-Fc substrates; further samples treated with Gefitinib, BGJ398, DECMA-1 or anti-N-cad antibody
[8] = target: Fc-tagged extracellular domain of E-cadherin (E-cad-Fc) (UniProt P12830); test: as above
[9] = target: Fc-tagged extracellular domain of N-cadherin (N-cad-Fc) (UniProt P19022); test: capillary shear flow cell adhesion assay; as a1, but with A431-D^N-cad+FGFR cells (N-cad co-expressed with FGFR1) on N-cad-Fc-coated capillaries
[10] = target: Fc-tagged extracellular domain of N-cadherin (N-cad-Fc) (UniProt P19022); remark: listed apart in the source
[11] = target: Fc-tagged extracellular domain of E-cadherin (E-cad-Fc) (UniProt P12830); remark: listed apart in the source
[12] = target: Fc-tagged extracellular domain of N-cadherin (N-cad-Fc) (UniProt P19022); remark: listed apart in the source
[13] = target: Fc-tagged extracellular domain of E-cadherin (E-cad-Fc) (UniProt P12830); remark: listed apart in the source
[14] = target: Fc-tagged extracellular domain of N-cadherin (N-cad-Fc) (UniProt P19022); test: capillary shear flow cell adhesion assay; cadherin-Fc (50 µg/ml) physisorbed on the inner walls of glass capillaries, blocked with BSA; A431-D^E-cad or A431-D^N-cad cells bound 20 min under static conditions, room temperature, low-serum medium with 2 mM Ca2+, then flow increased every 30 s; WSS50 from fits to Eqn 1

relative change of cell stiffness during bead twisting (MTC), E-cad beads on A431-D^E-cad cells [1]: 16%
relative change of cell stiffness during bead twisting (MTC), E-cad beads on MCF-7 cells [2]: 17%
relative change of cell stiffness during bead twisting (MTC), E-cad beads on A431-D^N-cad cells (no FGFR) [3]: -1%
Substance: Fc-tagged extracellular domain of E-cadherin (E-cad-Fc) (from UniProt P12830 155-709) (Fc fusion)

relative change of cell stiffness during bead twisting (MTC), N-cad beads on A431-D^E-cad cells [1]: -3.6%
relative change of cell stiffness during bead twisting (MTC), N-cad beads on A431-D^N-cad+FGFR cells [4]: 17%
relative change of cell stiffness during bead twisting (MTC), N-cad beads on A431-D^N-cad cells (no FGFR) [3]: 4%
Substance: Fc-tagged extracellular domain of N-cadherin (N-cad-Fc) (from UniProt P19022 160-724) (Fc fusion)

RMS traction stress of A431-D^E-cad cells on N-cad-Fc-coated 40 kPa gels, 0.5% serum [5]: 82 Pa
RMS traction stress of A431-D^E-cad cells on E-cad-Fc-coated 40 kPa gels, 0.5% serum [6]: 160 Pa
density of cells retained on the substrate [7]: 19 cells/mm^2
density of cells retained on the substrate [8]: 25 cells/mm^2
Substance: full-length human E-cadherin fused to GFP at the C-terminus, on A431-D cells (A431-D^E-cad) (from UniProt P12830 23-882) (receptor)

WSS50 (wall shear stress at which 50% of the cells are retained) [9]: 17 dynes/cm^2
RMS traction stress of A431-D^N-cad+FGFR cells on N-cad-Fc-coated 40 kPa gels, 0.5% serum [10]: 176 Pa
RMS traction stress of A431-D^N-cad+FGFR cells on E-cad-Fc-coated 40 kPa gels, 0.5% serum [11]: 100 Pa
RMS traction stress of A431D^N-cad cells (no FGFR) on N-cad-Fc-coated 40 kPa gels [12]: 85 Pa
RMS traction stress of A431D^N-cad cells (no FGFR) on E-cad-Fc-coated 40 kPa gels [13]: 88 Pa
WSS50 (wall shear stress at which 50% of the cells are retained) [14]: 15 dynes/cm^2
density of cells attached to the substrate [7]: 22 cells/mm²
density of cells attached to the substrate [8]: 15 cells/mm²
Substance: full-length wild-type human N-cadherin on A431-D cells (A431-D^N-cad; A431-D^N-cad+FGFR) (from UniProt P19022 26-906) (receptor)
